From the supplement of paper PMC9170038

Tested on: K4 kissing-loop RNA reporter
Experiment: apparent KD of K4 kissing-loop reporter; higher = weaker reporter binding
Settings: Eterna round: R107
Description: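 RNA-MaP round R107: designed RNA switches with theophylline, tryptophan, arginine or FMN aptamers are transcribed on-chip within common flanks. They are titrated with a labelled K4 kissing-loop RNA reporter in RNA-MaP buffer (100 mM Tris pH 7.5, 80 mM KCl, 4 mM MgCl2), without ligand or with the indicated ligand. Median apparent KD per design.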

[1] = input ligand: theophylline 20 uM
[2] = input ligand: tryptophan 2.4 mM
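Further: bound reporter read as fluorescence of individual clusters on recovered sequencing chips by microscopy, with normalized cluster intensities fitted with a binding model.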

Sequence	apparent KD of K4 kissing-loop reporter (input ligand: FMN 200 uM) [nM]	apparent KD of K4 kissing-loop reporter (input ligand: arginine 13.2 mM) [nM]	apparent KD of K4 kissing-loop reporter (input ligand: none) [nM]	apparent KD of K4 kissing-loop reporter [1] [nM]	apparent KD of K4 kissing-loop reporter [2] [nM]
UGUACCGACUCAGGAUAUGUCGUCGAAAGACGAAAUGGAGUGAUGUUCCUUAAACUGCGAAAGCAGACAGAAGGGAGUUGGUACU [FmnBS 29 C9+G77]	137	200	235	233	216
UGUACCGAGUCAGGAUAUCAUAAUAAAUCCAGUGAUGUUGGAAUAACCAGUACAAAGUACUGGCCUUGAGAAGGGACUUGGUACU [FmnBS 3 #SwitchBubble #StaticStem]	167	146	163	147	147
UGUAUGUGAUUUGAUACCAGACCAGCUGGUGGUUCACGAGUGAUGUUCGUGUUGGUUUGGGUCCCUUGGCAGCAAAUCGCAUACU [KL-SSTheoB12]	159	121	144	128	140
UGUAUGUGAUUUGAUACCAGACCAGCUGGUGUUUCAAGAGUGAUGUUCUUGUAGGUUUGGGUCCCUUGGCAGCAAAUCGCAUACU [KL-SSTheoB15]	159	122	152	122	131
UGUCAUUGGUCGGCCGCCACUAGGACCGGGUAUAACCUAGUGAUGUUAGUAAGUACGGCCGCCACUAGGACCGGGACCGAUGACU [KL-SSTryp-B19 #DoubleAptamer]	484	369	583	462	87.5
UGUCAUUGGUCGGCCGCCACUUCAUGUAGAGUGAUGUUUUGUAGGACGGAUCGAAAGAUCUGUCGGAGGACCGGGACCGAUGACU [FiskerMod 16 - Jieux - Same State - Tryptophan B]	121	119	134	266	1690
UGUCAUUGGUCGGCCGCCACUUCGUAUGAAGUGAUGUUUUGUAGAUUGUGUUGAAAGGUGUGGUGAAGGACCGGGACCGAUGACU [FiskerMod 23 - Jieux - Same State - Tryptophan B]	898	623	1010	1050	769
UGUCAUUGGUCGGCCGCCACUUGAAGGUCAAAGACCAUAGAGUGAUGUUCUAAGACGAAAGUCACAAGGACCGGGACCGAUGACU [TrypBS 3 #SwitchBubble #K4Middle]	361	134	133	265	607
UGUCAUUGGUCGGCCGCCACUUUAUAUGGAGUGAUGUUUUGUAAAUUGUGUUGAAAGGUGUGGUAAAGGACCGGGACCGAUGACU [FiskerMod 26 - Jieux - Same State - Tryptophan B]	1030	637	931	727	651
UGUCAUUGGUCUGAUACCAGCUUGAUCGGAAACGAUCUGCUGGAGUGAUGUUCCAAGUAAAGCCCUUGGCAGCAGACCGAUGACU [TheoBS 8 #SwitchBubble #StaticStem]	129	59.8	103	125	102
UGUCAUUGGUCUGAUACCAGGUUGAUCGGUAAACGAUCUCCUGGAGUGAUGUUCCAAAAUAUCCCUUGGCAGCAGACCGAUGACU [TheoBS 6 #SwitchBubble #StaticStem]	571	320	545	492	350
UGUCAUUGGUCUGAUACCAGUACCCUUGGCAGCCGAGGAGUGAUGUUCCAAGGAUACCAGUACCCUUGGCAGCAGACCGAUGACU [TheoBS 30 #DoubleAptamer #SwitchBubble]	219	178	186	108	215
UGUCAUUGGUCUGAUACCAGUUGAUGACGAAUACGUCAACUGGAGUGAUGUUCCAAUAACAACCCUUGGCAGCAGACCGAUGACU [MAT - Same State Theophlline B - Mod of Eli - D3]	557	494	530	953	563
UGUCUACCGGGAAGGAGCGUGAAUGAUAAUGGAUAUAGUGAUGUUAUAUAUACGAACGAAUCGCAGGUAGGUCGCCCGGAUCCCU [SSArgB.W]	431	419	606	431	481
UGUGUACCGGGAAGGAGCGUGAAUGAGAAUGGAUAUAGUGAUGUUAUGUAUACGAACGAAUCGCAGGUAGGUCGCCCGGAUCCCU [SSArgB.Z]	513	320	677	396	461
UGUUACCAGUGAUGUUGGGAGAUGAAGAGCAAGGAUAUGUGAUAGUACAGAAGGUGCGUCGUCGUGAUUAUCACGCUCUGUGUUA [theeternabot_exclusion_KL_FMN_A_8]	266	98.3	141	138	111
UGUUAUGUAUCAGGAUAUUAGUGAUGUUUGUUGAUGUUAGUGAUGUUGAUAUUUGUUUUAUGUAUUUAAGAAGGGAUUGAGAUGU [ooilmullin]	53.9	19.2	38.7	27.8	41.4
UGUUUUUACUGAAGGAGCGGCAAUUGAUACGUAGAUAUAGUGAUGUUAUAUAAGAUAGAGAGCCAGGUAGGUCGCAGAAUGUAUC [ExArgB.aC]	214	212	237	252	231
UUAAUUAAGACGGCCGCCACUGAAUUAGAGUGAUGUUCUAAAAUUACUAAAUUAAAUUUAUUCAACAGGACCGGGUCAAUUAUUA [JR_SSTryptoB_Sub009]	516	435	560	527	524
UUAGAGAUCUCAGGAUAUGAGUGAUGUUGAUAUCAAGAUCUGAGAUAGAAUUCUAUCUCAGAUCAAUCAGAAGGGAGAUCUCAUU [AK1.3 Exc FMN B]	172	109	194	411	263
UUAGGAGAGGGAAGGAGCGUGAAAGAGAAAGAAUAUAGUGAUGUUAUAUAGAAGAAAGAAUCACAGGUAGGUCGCCCGGAGGAGG [SSArgB.C]	672	520	632	225	518

Sequence	apparent KD of K4 kissing-loop reporter (input ligand: FMN 200 uM) [nM]	apparent KD of K4 kissing-loop reporter (input ligand: arginine 13.2 mM) [nM]	apparent KD of K4 kissing-loop reporter (input ligand: none) [nM]	apparent KD of K4 kissing-loop reporter [1] [nM]	apparent KD of K4 kissing-loop reporter [2] [nM]
UUAGGAGUGGGAGGAUAUCCUAAUAUGGGUGAUGUUAGCGAUGUUGAAAGUGUAGUGAUGUUGUGCGGAGAAGGUCCAGUGUUGA [BDazzled - #13 - Exc. FMN B]	196	126	178	222	161
UUAUAUAUAUCAGAUACCAGCAUAAUGGAAACAAAUUAUGUUAUGAGUGAUGUUCAUGUAUGCCCUUGGCAGCUGGUAUGGGUUU [KL-XTheo-B19]	467	412	433	487	363
UUAUAUAUAUCAGAUACCAGUAUAAUGGAAACAAAUUAUGUUAUGAGUGAUGUUCAUGUAUGCCCUUGGCAGCUGGUAUGGGUUU [KL-XTheo-B20]	356	322	362	439	311
UUAUCUAUAUUCGAUACCAGUACCCUUUGUGUUAAUCCUUUUAUCAGUGAUGUUGAUGUGUACCCUUGGCAGCGGGUAUGGGUUU [KL-XTheo-B15]	420	388	437	640	349
UUCGAAAGUCGAAGGAGCGCUGUCGGUCAUAGACCAUAUCUGUAGUGAUGUUACAGAUGACAGCAGGUAGGUCGCGACAGAGACA [Arg B SS t18]	148	120	127	144	144
UUGAGACGUCAAGGAUAUUCCGCGGAAGGGCGAGCGACCCAAGUGUGAGUGAUGUUCAGCAAGCCGGAAGAAGGUGAAUUUCACC [theeternabot_sameState_KL_FMN_B_26]	799	628	958	1050	937
UUGAGCCGGACGGAAGUCCGGCUCUGCGAGCGAGGACCGGUACGGCCGCCACUCGGUGCAGUGAUGUUGCAUGGCCGCAAGGCCG [#2 Exclusion - Tryptophan A Attempt #4 (HarryS)]	270	232	301	208	324
UUGGCUGGACGGGAUACCAGCCAAAUCGUGGGCUUGGGAUGUCUAAGAGCCAGUGAUGUUGGCCCUUGGCAGCCCUCCCAGCUUG [Xerirala]	104	97.7	95.9	75.5	113
UUGUAUAGUGGAAGGAGCGCGUGGGCGCAGUGAUGUUGCGCCCGACAUCACUUCAACUUAACGCAGGUAGGUCGCCAUUGUAAUG [Arginine B (Excl) V5]	131	88	113	104	101
UUUAAAUAUAGUGAUGUUAUAUAACAAUGACGAGGACCGGUACGGCCGCCACUCGAGAGAGAUAAUGGUCAUACAAAUGUAUGUC [AstrosSSTryA#7]	799	706	1100	830	564
UUUAACGAGUGAUGUUCGAAAAGUAAUGGUGAGGAUAUCGAUUUUUCGAGAAGGCACCUCGAAGUGAUACGAAAGUAUCGCUUCG [FMN A 4]	173	276	261	257	199
UUUCCAGAUAAGUGGGAACACUCCAUAACAGAGGAUAUCAGAGCGCUGAGAAGGCUGUUUAUCAGUGAUGUUGAUAGUGUGGAGU [FMN A SS t2a]	171	660	671	786	630
UUUCCAGAUAAGUGGGAACGCUCCAUAACAGAGGAUAUCAGAGCGCUGAGAAGGCUGUUUUACAGUGAUGUUGUAAGUGUGGAGC [#10 K4 FMN A Same State]	158	272	299	282	252
UUUGGUUUCUCGGCCGCCACUCGUUGGUAAUGGGCCUCAGGGAUAUAGUGAUGUUAUGUAAAGAAGAGGACCGGGAGAAGGAAGG [ExTryptoB.Dn]	235	229	303	267	156
UUUGGUUUCUCGGCCGCCACUCGUUGGUUAUGGGCUUCAGGGAUAUAGUGAUGUUAUGUAUAGAAGAGGACCGGGAGAAGGUUUU [ExTryptoB.Du]	215	368	330	434	239
UUUGUAGAGGGAAGGAGCGUGAAAGAGAAAGAAUAUAGUGAUGUUAUAUAGAAGAAAGAAUCACAGGUAGGUCGCCCGGAGGAGG [SSArgB.E]	463	436	458	563	295
UUUGUAGUGGGAGGAUAUCCUAAUAUGGGUGAUGUUAGCGAUGUUGAAGGUGUAGUGAUGUUAUGCGGAGAAGGCCCACUGUAGA [BDazzled - #20 - Exc. FMN B]	543	221	189	614	253
UUUUAAAUGUCUGAUACCAGAGAAAAUAUAUGUAGUGAUGUUAUAUACAAAAUAAAUAAGCUCCCUUGGCAGCAGUAUUAAUUUU [AstrosExc-TheB#6]	679	632	863	725	529
UUUUAUAACCGAAGGAGCGCGUGGGCGCAGUGAUGUUGCGCCCGACAUCACUUCAACUUAACGCAGGUAGGUCGCGGUUUUAAUG [Arginine B (Excl) V3]	148	147	181	163	168
UUUUAUUCGUACUUCUAGUGAUGUUAGAUUCGAGGACCGGUACGGCCGCCACUCGUUAAGGCGAUUUUAUAUUUUUUAUUCUUUA [JR_SSTryptoA_Sub012]	182	165	179	165	138
UUUUGGUACUGAGGAUAUUCGACGAAAUAUAGUGAUGUUAUAUAAGGAGGAGGAGGGUGGGAGGAAGGAGAAGGCAGAAGAGGAG [#06 K4 FMN B Exclusion]	285	179	238	285	185
